Test system: Nc1nc2c(ncn2[C@@H]2O[C@H](COP(=O)(O)O[C@H]3[C@@H](O)[C@H](n4cnc5c(N)ncnc54)O[C@@H]3CO)[C@@H](O)[C@H]2O)c(=O)[nH]1
Assay: purified protein, by the assay type
Conditions: pH 7.4; 24.0 °C

In the case of “influenza B polymerase initiating RNA synthesis at the vRNA promoter (vPol) (Influenza B virus (B/Memphis/13/2003))”, the Km is reported as 58 ± 18 µM.

From paper PMC5399792
